Results as given in patent publication US20200055939A1 (Genentech, published 2020).
Where a chain is given by its changes, count along the chain named.

T1: P294A
T1 construct: % monomer 89.16; also called MICA*008.mIgG2a P294A
T1 chain: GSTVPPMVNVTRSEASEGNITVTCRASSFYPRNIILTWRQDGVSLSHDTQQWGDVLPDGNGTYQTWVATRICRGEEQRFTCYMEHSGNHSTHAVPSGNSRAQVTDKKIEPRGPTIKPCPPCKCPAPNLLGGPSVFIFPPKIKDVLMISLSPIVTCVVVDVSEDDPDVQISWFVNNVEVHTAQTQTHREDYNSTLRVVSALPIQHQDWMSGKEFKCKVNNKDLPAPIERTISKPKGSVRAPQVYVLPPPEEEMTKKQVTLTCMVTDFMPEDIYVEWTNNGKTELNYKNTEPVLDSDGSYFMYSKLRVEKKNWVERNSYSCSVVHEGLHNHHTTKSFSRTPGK

T2: R279A
T2 construct: % monomer 95.2; also called MICA*008.mIgG2a R279A
T2 chain: T1 chain with R78A, A93P

T3: I236A
T3 construct: % monomer 92.49; also called MICA*008.mIgG2a I236A
T3 chain: T1 chain with I35A, A93P

T4: H248A
T4 construct: % monomer 92.05; also called MICA*008.mIgG2a H248A
T4 chain: T1 chain with H47A, A93P

T5: D249A
T5 construct: % monomer 86.64; also called MICA*008.mIgG2a D249A
T5 chain: T1 chain with D48A, A93P

T6: Q241A (Fc fusion, a disulfide-linked homodimer; one chain given.)
T6 construct: % monomer 97.6; also called MICA*008.mIgG2a Q241A
T6 chain: T1 chain with Q40A, A93P

T7: N289A
T7 construct: % monomer 89.74; also called MICA*008.mIgG2a N289A
T7 chain: T1 chain with N88A, A93P

B1: 6F8.7 Fab (Fab, V domains shown)
VH: DVQLQGSGPGLVKPSQSLSLTCSVTGYSITNDYYWNWIRQFPGNKLEWMGFISFGGSNNYNPSLKNRISITRDTSKNQFFLKLSSVTTEDTATYYCARYDGRGAWFAYWAQGTLVTVSA
VL: DIQMTQSPASLSASVGETVTITCRASGNIHNYLAWYQQKQGKSPQLLVYDAITLADGVPSRFSGSGSGTQYSLKINSLQPEDFGNYYCQHFWSFPLTFGAGTKVEIK
B2: 7D4.6 Fab (Fab, V domains shown)
VH: DVQLQESGPGLVKPSQSLSLTCTVTGYSITSDYAWNWIRQFPRNKLEWMGYINYSGTTNYNPSLKSRISITRDTSKNQFFLQLISVTTEDTATYYCSYYRYDGAWFPYWGQGTLVTVSA
VL: B1 VL with D50N, T53M, G64A, N85S
B3: 1D5 Fab (Fab, V domains shown)
VH: EIQLQQSGPELVKPGASVKVSCKASGYAFTSQNIYWVKQSHGKSLEWIGYIEPYNVVPMYNPKFKGKATLTVDKSSSSAYIHLNSLTSEDSAIYYCARSGSSNFDYWGQGTTLTVSS
VL: EIILTQSPTTMAASPGEKITITCSASSSISSHYLHWYQQKSGFSPKLLIYRTSNLASGVPARFSGSGSGTSYSLTIGTMEAEDVATYYCQQGSSLPLTFGAGTKVEIK
notes: Expressed in E. coli as chimera of murine variable and human constant domains; not shown: human IgG1 CH1 constant domain; human kappa CL constant domain
B4: 2E5.2.3 Fab (Fab, V domains shown)
VH: QGQMQQSGAELVKPGASVKLSCKTSGFTFSDNYISWLKQKPGQSLEWIAWIYAGTGGTSYNQKFTAKAQLTVDTSSSTAYMQFSSLTTEDSAIYYCARHDYYGTSGAWFAYWGQGTLVTVSA
VL: DVLMTQTPLSLPVSLGDQASLSCRSSQNIVHINGNTYLEWYLQKPGQSPKLLIYKVSNRFSGVPDRFSGSGSGTDFTLKISRVEAEDLGVYYCFQGSHVPWTFGGGTKVEIK

Molecular target: T1, P294A
Assay: SPR, Fab over captured MICA*008.mIgG2a Ala variant; KD relative to wild type

| fold-decrease in affinity | Binder |
| --- | --- |
| 0.9 | B1 |
| 1 | B2 |
| 1 | B3 |
| 1 | B4 |

Molecular target: T2, R279A
Assay: as above

| fold-decrease in affinity | Binder |
| --- | --- |
| 4.5 | B1 |
| 5.1 | B2 |
| 0.8 | B4 |

Molecular target: T3, I236A
Assay: as above

| fold-decrease in affinity | Binder |
| --- | --- |
| 1.4 | B1 |
| 1.2 | B2 |
| 0.9 | B4 |

Molecular target: T4, H248A
Assay: as above

| fold-decrease in affinity | Binder |
| --- | --- |
| 0.6 | B1 |
| 0.6 | B2 |
| 1 | B4 |

Molecular target: T5, D249A
Assay: as above

| fold-decrease in affinity | Binder |
| --- | --- |
| 0.8 | B1 |
| 0.7 | B2 |
| 1 | B4 |

Molecular target: T6, Q241A
Assay: as above

| fold-decrease in affinity | Binder |
| --- | --- |
| 1.1 | B1 |
| 0.4 | B2 |
| 1.1 | B4 |

Molecular target: T7, N289A
Assay: as above

| fold-decrease in affinity | Binder |
| --- | --- |
| 1.2 | B1 |
| 3.5 | B2 |
| 0.2 | B3 |
| 1.1 | B4 |
